Assay [1] deals with T1, human CD200R expressed on cells (human, UniProt Q8TD46 25-348).
T1 chain: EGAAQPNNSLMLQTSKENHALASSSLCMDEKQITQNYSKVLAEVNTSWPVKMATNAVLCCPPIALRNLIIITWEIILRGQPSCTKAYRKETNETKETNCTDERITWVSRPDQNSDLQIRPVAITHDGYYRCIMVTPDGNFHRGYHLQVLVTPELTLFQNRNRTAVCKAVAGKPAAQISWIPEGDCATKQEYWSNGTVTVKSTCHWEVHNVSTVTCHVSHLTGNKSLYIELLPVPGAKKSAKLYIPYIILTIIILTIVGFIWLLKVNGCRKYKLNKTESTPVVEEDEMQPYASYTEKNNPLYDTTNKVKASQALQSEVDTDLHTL
Description: cell-based or functional assay.

For assay [2], the target named is T2, human FcγRI extracellular domain (human, UniProt P12314 16-292).
T2 construct: extracellular domain; also called CD64
Description: SPR at 25 C, antibody captured on Protein A, FcγR ECD analyte. As to the method: (§1) Biacore® T100 instrument and Biacore® 3000 (GE Healthcare, Piscataway, NJ), Biacore® reagents and Scrubber2 Biacore® Evaluation Software (Biologics 2008) are used for the SPR analysis of antibody binding. A CM5 chip (Biacore® P/N BR-1006-68) is prepared using the manufacturer's EDC/NHS amine coupling method (Biacore® P/N BR-1000-50). Briefly, the surfaces of all 4 FCs are activated by injecting a 1:1 mixture of EDC/NHS for 7 minutes at 10 μL/minute. Protein A (Calbiochem P/N 539202) is diluted to 100 μg/mL in 10 mM acetate, pH 4.5 buffer and immobilized for approximately 400 RU onto all 4 flow cells by 7 minute injection at a flow rate of 10 μL/minute. Un-reacted sites are blocked with a 7-minute injection of ethanolamine at 10 μL/minute. Injections of 2×10 μL of glycine pH 1.5 are used to remove any non-covalently associated protein.
Reference-subtracted data is collected as FC2-FC1, FC3-FC1, and FC4-FC1. The measurements are obtained at 25° C. The affinity (KD) is calculated using either steady state equilibrium analysis with the Scrubber 2 Biacore® Evaluation Software or a “1:1 (Langmuir) binding” model in BIA Evaluation.

Assay [3] deals with T3, human FcγRIIA_131H extracellular domain (human, UniProt P12318 34-217).
T3 construct: extracellular domain; also called CD32a
T3 sequence (looked up): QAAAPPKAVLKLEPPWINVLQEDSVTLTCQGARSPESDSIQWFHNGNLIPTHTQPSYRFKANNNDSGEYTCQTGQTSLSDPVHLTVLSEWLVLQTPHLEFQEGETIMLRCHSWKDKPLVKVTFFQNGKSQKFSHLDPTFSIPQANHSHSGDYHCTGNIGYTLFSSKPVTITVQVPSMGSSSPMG
Description: SPR at 25 C, antibody captured on Protein A, FcγR ECD analyte, steady state. As to the method: as §1
(§2) For FcγRIIa, FcγRIIb, and FcγRIIIa binding, antibodies are diluted to […] in running buffer, and approximately 500 RU of each variant is captured in flow cells 2 through 4 (RUcaptured). FC1 is the reference flow cell. Fcγ receptor ECDs are diluted to 10 μM in running buffer and then 2 fold serially diluted in running buffer to 39 nM. Duplicate injections of each concentration are injected over all FCs at 40 μL/minute for 60 seconds followed by a 120 second dissociation phase. Regeneration is performed by injecting 15 μL of 10 mM glycine pH 1.5 at 30 μL/min over all FCs.
(§3) Reference-subtracted data is collected as FC2-FC1, FC3-FC1, and FC4-FC1. The measurements are obtained at 25° C. The affinity (KD) is calculated using the steady state equilibrium analysis with the Scrubber 2 Biacore® Evaluation Software.

Assay [4] concerns the target T4, human FcγRIIA_131R extracellular domain (human, UniProt P12318 34-217).
T4 construct: extracellular domain; also called CD32a
T4 sequence (looked up): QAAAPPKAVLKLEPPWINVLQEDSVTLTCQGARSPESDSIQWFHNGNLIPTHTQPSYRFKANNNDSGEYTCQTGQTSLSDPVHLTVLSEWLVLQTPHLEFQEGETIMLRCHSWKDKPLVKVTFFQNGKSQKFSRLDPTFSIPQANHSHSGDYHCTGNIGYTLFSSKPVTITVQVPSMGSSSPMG
The description is as above. As for the experimental part: as §1, §2, §3

The target of assay [5] is T5, human FcγRIIb extracellular domain (human, UniProt P31994 43-217).
T5 construct: extracellular domain; also called CD32b
T5 sequence (looked up): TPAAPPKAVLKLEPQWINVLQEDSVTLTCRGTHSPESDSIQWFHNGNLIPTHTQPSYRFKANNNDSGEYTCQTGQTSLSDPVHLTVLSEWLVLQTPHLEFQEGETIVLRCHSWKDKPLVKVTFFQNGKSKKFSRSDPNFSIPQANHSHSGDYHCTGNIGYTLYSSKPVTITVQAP
Described as above. As to the method: as §1, §2, §3

The target in assay [6] is T6, human FcγRIIIA_158V extracellular domain (human, UniProt P08637 17-208).
T6 construct: extracellular domain; Allotype with Val at 158 (numbering as in the label); also called CD16a
The description is as above. As for the experimental part: as §1, §2, §3

Assay [7] concerns the target T7, human CD200R (purified soluble receptor, SPR analyte) (human, UniProt Q8TD46 29-265, limits assumed).
T7 construct: Purified by IMAC and size exclusion chromatography; also called hCD200R; human CD200 receptor
T7 chain: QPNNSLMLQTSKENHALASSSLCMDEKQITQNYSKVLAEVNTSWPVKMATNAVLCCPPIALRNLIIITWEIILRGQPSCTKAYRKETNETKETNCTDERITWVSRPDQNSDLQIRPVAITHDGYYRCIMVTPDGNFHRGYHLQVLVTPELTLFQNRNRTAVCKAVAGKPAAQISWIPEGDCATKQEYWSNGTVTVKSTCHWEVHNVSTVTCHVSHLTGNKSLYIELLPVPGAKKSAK
The experiment in a line: SPR at 37 C, antibody captured on Protein A, receptor analyte, 1:1 model; n=3.

For assay [8], the target named is T8, cynomolgus monkey CD200R (purified soluble receptor, SPR analyte) (cynomolgus monkey, UniProt Q8TD46 25-265 (human entry)).
T8 construct: Purified by IMAC and size exclusion chromatography; also called cyno CD200R
T8 chain: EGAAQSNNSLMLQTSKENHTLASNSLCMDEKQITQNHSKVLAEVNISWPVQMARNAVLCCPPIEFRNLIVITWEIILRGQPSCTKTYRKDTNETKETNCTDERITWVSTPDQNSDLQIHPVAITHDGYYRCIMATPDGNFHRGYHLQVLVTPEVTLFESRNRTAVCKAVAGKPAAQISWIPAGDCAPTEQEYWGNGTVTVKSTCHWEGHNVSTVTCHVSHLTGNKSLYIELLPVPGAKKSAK
The description is as above.

The target in assay [9] is T9, human FcγRIIIA_158F extracellular domain (human, UniProt P08637 17-208).
T9 construct: extracellular domain; Allotype with Phe at 158 (numbering as in the label); also called CD16a
Description: SPR at 25 C, antibody captured on Protein A, FcγR ECD analyte, steady state. As for the experimental part:
as §1, §2, §3

These results are taken from patent US20220251198A1 (Eli Lilly, published 2022).

T2 sequence (P12314 16-292): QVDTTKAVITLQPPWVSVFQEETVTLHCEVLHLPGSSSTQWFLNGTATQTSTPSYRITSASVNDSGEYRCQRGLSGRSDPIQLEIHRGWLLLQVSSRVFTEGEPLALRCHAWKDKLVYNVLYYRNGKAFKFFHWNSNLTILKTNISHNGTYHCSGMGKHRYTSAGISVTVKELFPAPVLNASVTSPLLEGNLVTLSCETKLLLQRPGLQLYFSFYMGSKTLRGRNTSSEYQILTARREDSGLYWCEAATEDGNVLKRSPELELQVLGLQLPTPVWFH
T6 sequence (P08637 17-208 F176V): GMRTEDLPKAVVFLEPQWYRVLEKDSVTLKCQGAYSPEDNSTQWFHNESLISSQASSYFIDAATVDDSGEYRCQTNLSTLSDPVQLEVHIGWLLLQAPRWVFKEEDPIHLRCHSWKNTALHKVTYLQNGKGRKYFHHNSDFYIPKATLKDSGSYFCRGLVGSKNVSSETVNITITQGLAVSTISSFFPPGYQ
T9 sequence (P08637 17-208): as the sequence (P08637 17-208 F176V) above, with V160F counted along it

B1: Antibody I-4P (antibody, human IgG4 S228P, kappa)
heavy: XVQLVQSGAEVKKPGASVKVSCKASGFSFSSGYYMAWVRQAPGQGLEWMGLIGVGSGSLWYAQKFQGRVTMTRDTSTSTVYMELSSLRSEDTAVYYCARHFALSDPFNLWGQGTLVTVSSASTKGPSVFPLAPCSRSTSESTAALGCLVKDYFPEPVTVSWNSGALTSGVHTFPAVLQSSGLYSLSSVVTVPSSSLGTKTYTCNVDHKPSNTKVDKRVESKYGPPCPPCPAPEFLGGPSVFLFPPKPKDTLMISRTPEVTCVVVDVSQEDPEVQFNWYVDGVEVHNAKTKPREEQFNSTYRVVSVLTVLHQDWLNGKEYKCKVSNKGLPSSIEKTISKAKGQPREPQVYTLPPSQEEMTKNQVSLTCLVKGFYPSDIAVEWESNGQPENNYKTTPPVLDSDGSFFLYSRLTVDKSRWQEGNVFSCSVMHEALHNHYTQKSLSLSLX
light: EIVLTQSPDFQSVTPKEKVTITCQASESIDSYLLWYQQKPDQSPKLLIKQASTLASGVPSRFSGSGSGTDFTLTINSLEAEDAATYYCQNYYDISSNDFGGGTKVEIKRTVAAPSVFIFPPSDEQLKSGTASVVCLLNNFYPREAKVQWKVDNALQSGNSQESVTEQDSKDSTYSLSSTLTLSKADYEKHKVYACEVTHQGLSSPVTKSFNRGEC
modifications: Xaa at position 1 is either glutamine or pyroglutamic acid; Xaa at position 446 is either glycine or absent
notes: Humanized IgG4P (S228P), kappa; also called IgG4SP; Antibody I-4P-AF647 (AF647-labelled form used as stain)
For B1, the “IC50 of inhibition of IC-stimulated IL-8 release, human CD200R-expressing U937 cells” value in [1] was 0.07 µg/mL. Also, the “IC50 of inhibition of immune-complex induced IL-8 secretion, U937 cells expressing human CD200R (average of 3 experiments)” value in assay [1] was 0.2 µg/mL. In addition, the Kd in assay [2] was determined as 0.369 nM; in assay [3], 3900 nM; in [4], 1700 nM; in assay [5], 2200 nM; in [6], 4300 nM; in [7] it was 5.6 nM. This molecule also gave a Kd in assay [8] of 2.3 nM.

B2: Antibody I-IgG1 (antibody)
heavy: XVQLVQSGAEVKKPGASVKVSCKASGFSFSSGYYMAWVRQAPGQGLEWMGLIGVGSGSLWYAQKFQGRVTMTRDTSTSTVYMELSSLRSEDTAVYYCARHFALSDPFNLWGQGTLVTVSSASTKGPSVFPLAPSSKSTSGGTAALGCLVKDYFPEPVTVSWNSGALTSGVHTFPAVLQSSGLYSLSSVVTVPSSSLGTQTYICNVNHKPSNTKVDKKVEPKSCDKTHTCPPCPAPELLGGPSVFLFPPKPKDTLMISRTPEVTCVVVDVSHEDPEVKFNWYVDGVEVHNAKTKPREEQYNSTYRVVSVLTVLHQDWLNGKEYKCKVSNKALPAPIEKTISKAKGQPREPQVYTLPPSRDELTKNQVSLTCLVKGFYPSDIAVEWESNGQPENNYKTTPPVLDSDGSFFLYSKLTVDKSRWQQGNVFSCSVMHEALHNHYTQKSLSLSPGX
light: EIVLTQSPDFQSVTPKEKVTITCQASESIDSYLLWYQQKPDQSPKLLIKQASTLASGVPSRFSGSGSGTDFTLTINSLEAEDAATYYCQNYYDISSNDFGGGTKVEIKRTVAAPSVFIFPPSDEQLKSGTASVVCLLNNFYPREAKVQWKVDNALQSGNSQESVTEQDSKDSTYSLSSTLTLSKADYEKHKVYACEVTHQGLSSPVTKSFNRGEC
modifications: Xaa at position 1 is either glutamine or pyroglutamic acid; Xaa at position 450 is either lysine or absent
notes: Same HCVR, LCVR and LC as Antibody I-4P; IgG1 heavy chain
Turning to B2, the Kd in assay [2] worked out at 0.0489 nM; in assay [3], 500 nM; in assay [4] it was 600 nM; in assay [5], 2800 nM; in assay [6] it was 200 nM; in assay [9] it was 900 nM.
